{"source": "patent US20190177410A1", "key": {"[1]": {"target": "full-length human APLNR (hAPLNR) (human) (UniProt P35414)", "assay": "cell-based or functional assay"}, "[2]": {"target": "human Apelin receptor (hAPLNR) of PathHunter eXpress AGTRL1 CHO-K1 beta-Arrestin cells (human) (UniProt P35414)", "assay": "cell-based or functional assay"}, "[3]": {"target": "full-length human APLNR (hAPLNR) (human) (UniProt P35414)", "assay": "FACS on HEK293/CRE-luc/hAPLNR cells"}, "[4]": {"target": "T1, full length cynomolgus APLNR (MfAPLNR) (cynomolgus (Macaca fascicularis))", "T1 sequence": "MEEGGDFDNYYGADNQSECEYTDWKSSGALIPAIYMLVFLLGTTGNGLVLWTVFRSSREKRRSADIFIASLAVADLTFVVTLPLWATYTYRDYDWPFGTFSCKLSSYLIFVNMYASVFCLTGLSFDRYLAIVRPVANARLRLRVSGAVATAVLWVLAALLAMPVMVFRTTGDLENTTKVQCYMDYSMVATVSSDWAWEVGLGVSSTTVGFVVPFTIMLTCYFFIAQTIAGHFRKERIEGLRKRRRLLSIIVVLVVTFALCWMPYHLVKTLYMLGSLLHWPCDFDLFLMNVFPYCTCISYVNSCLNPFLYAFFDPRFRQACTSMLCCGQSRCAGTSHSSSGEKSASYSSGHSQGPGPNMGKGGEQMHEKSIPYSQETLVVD", "assay": "FACS on HEK293/CRE-luc/MfAPLNR cells"}}, "note": "No end group written: not given here."}
{"binder": "QRPRLSHKGPMPFGGGGSGGGGSGGGGS-{VH of anti‑myc 9E10 antibody} (antibody, part only; not given: anti-myc antibody chains, part only, ends and bridges not checked)", "note": "[Anti-myc 9E10 Nter VH fusion with (G4S)3 linker (Apelin fused to an irrelevant anti-myc antibody)]", "values": [{"measurement": "% Activation at 100 nM mAb (7.5 uM Forskolin), CRE-luc", "setting": "[1]", "value": 53, "unit": "%"}, {"measurement": "% Activation at 100 nM mAb (10 uM Forskolin), CRE-luc", "setting": "[1]", "value": 37, "unit": "%"}, {"measurement": "EC50 [M] (7.5 uM Forskolin), CRE-luc", "setting": "[1]", "value": "1.1e-08", "unit": "M"}, {"measurement": "EC50 [M] (10 uM Forskolin), CRE-luc", "setting": "[1]", "value": "> 1e-07", "unit": "M"}, {"measurement": "% Activation at 500 nM antibody or Apelin-antibody fusion, PathHunter beta-Arrestin assay", "setting": "[2]", "value": 6, "unit": "%"}, {"measurement": "Binding Ratio of Geom. Mean to Unstained Cells", "setting": "[3]", "value": 12, "unit": "fold"}, {"measurement": "Binding Ratio of Geom. Mean to Unstained Cells", "setting": "[4]", "value": 3, "unit": "fold"}]}
